Test: yeast display, Sf9 membrane polyspecificity reagent, FACS + sequencing; frameworks hold sequencing errors
Outline: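 Polyreactivity labels are assigned by the sorting gate from which each nanobody was recovered. The gates were low and high (top ~1%), set on anti-HA fluorescence for expression and streptavidin fluorescence for reagent binding. Before sorting, galactose-induced (36–48 hours) yeast display cells were stained for 1 hour at 4 °C with 10% biotinylated, detergent-solubilized Sf9 membrane reagent.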

Row | Sequence | polyreactivity (PSR sort gate)
1 | QVQLVESGGGLVQAGGSLRLSCAASGFTFRYYAMGWYRQAPGKERELVAAISWSGGSTYYADSVKGRFTISRDNAKNTVYLQMNSLKPEDTAVYYCNAYAYYSHGVTTTYDYWGQGTQVTVSS | high polyreactivity
2 | QVQLVESGGGLVQAGGSLRLSCAASGFTFRYYAMGWYRQAPGKERELVAAITSRGGSTYYADSVKGRFTISRDNAKNTVYLQMNSLKPEDTAVYYCAAETWRPSPYSRVSTYDYWGQGTQVTVSS | high polyreactivity
3 | QVQLVESGGGLVQAGGSLRLSCAASGFTFRYYAMGWYRQAPGKERELVAGITWSGTNTYYADSVKGRFTISRDNAKNTVYLQMNSLKPEDTAVYYCITSPYLHYYYWGQGTQVTVSS | high polyreactivity
4 | QVQLVESGGGLVQAGGSLRLSCAASGFTFRYYAMGWYRQAPRKERELVAAIPRNGGSTYYADTVKGRFTISRDNAKNTVYLQMKSLKPEDTAVYYCAAAYYRDSDRRFNYWGQGTQVTVSS | high polyreactivity
5 | QVQLVESGGGLVQAGGSLRLSCAASGFTFRYYTMGWYRQAPGKERELVAAITASGSSTYYADSVKGRFTISRDNAKNTVYLQMNSLKPEDTAVYYSKALHFYGVGRYDHWGQGNQVTVSS | high polyreactivity
6 | QVQLVESGGGLVQAGGSLRLSCAASGFTFRYYTMGWYRQAPGKERELVASISRRGGSTYYADSVKGRFTISRDNAKNTVFLQMNSLKPEDTAVYYCNTLSQVFASRAPKFDYWGQGTQVTVSS | high polyreactivity
7 | QVQLVESGGGLVQAGGSLRLSCAASGFTFSAYAMGWYRQAPGKERELVAAITRSGGSTYYADSVKGRFTISRDNAKNTVYLQMNSLKPEDTAVYYCAKSDRPWWGYYYQFDYWGQGTQVTVSS | low polyreactivity
8 | QVQLVESGGGLVQAGGSLRLSCAASGFTFSAYAMGWYRQAPGKERELVASITRSGGSTYYADSVKGRFTISRDNAKNTVYLQMNCLKPEDTAVFYCAKSDRPWWGYYYQFDYWGQGTQVSVSS | low polyreactivity
9 | QVQLVESGGGLVQAGGSLRLSCAASGFTFSCYAMGWYRQAPGKEREFVAAISRRGAITSYADSVKGRFTISRDNAKNTVYLQMNSLKPEDTAVYYCNARYPHYYYSAYNYWGQGSQVTVSS | high polyreactivity
10 | QVQLVESGGGLVQAGGSLRLSCAASGFTFSDNAMGWDRQAPGKERELVATISQSSGSTSYADSVKGRFTISRDYAKNTVYLQLNSLKPEDTAVYSCANRRLFYWGKGTQVTVSS | low polyreactivity
11 | QVQLVESGGGLVQAGGSLRLSCAASGFTFSENTMGWYRQAPGKERELVADIDSGGSTYYADSVKGRFTISRDNAKNTVYLQMNSLKPEVTAVYYCAIDYHVVGGQTFLFEYDYWGQGTQVTVSS | low polyreactivity
12 | QVQLVESGGGLVQAGGSLRLSCAASGFTFSFYAIGWYRQAPGKERELVAAINYSGGRTYYADSVKGRFTISRDNAKNTVYLQMNSLKPEDTAVYYCAVHIPSVSGVTDYYYWGQGSQVTVSS | high polyreactivity
13 | QVQLVESGGGLVQAGGSLRLSCAASGFTFSFYAMGRYRQAPGKEREYVAAITNSGGSTYYADSVKGRFTISRDNAKNTVYLQMNSLKPEDTGVYYCASKRAWPGYFTYYSWGQGTQVTVSS | high polyreactivity
14 | QVQLVESGGGLVQAGGSLRLSCAASGFTFSGNAMGWYRQAPGKEREIVAAITARGGNTFYADSVKGRFTISRDNAKNTVYLQMNSLQPEETAVSYCKRGPYYSSSKYRFSAYHRAYWGQGNQVTVSS | high polyreactivity
15 | QVQLVESGGGLVQAGGSLRLSCAASGFTFSGNVMGWYRQAPGKERELVAGISRSGSSTSYADSVKGRFTISRDNAKNTVYLQMNSLKPEDTAVYYCNKVKRSYYYVDTDYWGQGTQVTVSS | high polyreactivity
16 | QVQLVESGGGLVQAGGSLRLSCAASGFTFSGYDIGWYRQAPGKERELVAGISSGGVSTTYADSVKGRFTISRDNAKNTVYLQMNSLKPEDTAVYYCNAEWTSFDWGQGTQVTVSS | low polyreactivity

Row | Sequence | polyreactivity (PSR sort gate)
17 | QVQLVESGGGLVQAGGSLRLSCAASGFTFSINAMGWYRQAPGKERELVASITWSGGRTYYADSVKGRFTISRDNAKNTVYLQMNSLKPEDTAVYYCAARSYGTSTYDYWGQGTQETVSS | high polyreactivity
18 | QVQLVESGGGLVQAGGSLRLSCAASGFTFSKYAMGWYRQAPGKERELVAGITWSGGRTYYADSVKGRFTISRDNAKNTVYLQLNSLIPDDSAVYYCAADPVWGRYIKYDYWGQGTQVTVSS | high polyreactivity
19 | QVQLVESGGGLVQAGGSLRLSCAASGFTFSKYAMGWYRQAPGTERELVASIDDGGSTNYADSVKGRFTISRDNAKTTVYLQMNRLNPEDTAVYYCNASYPTGYWYYVIVQYDYWGQGTQVTVSS | low polyreactivity
20 | QVQLVESGGGLVQAGGSLRLSCAASGFTFSKYDMGWYRQATGKERELVAAISRSAGSTYYADSVKGRFTISRDHAKNTVYLQMNSLKPEDTAVYYCARDNPRSPSGYNYWGQGTQVTVSS | high polyreactivity
21 | QVQLVESGGGLVQAGGSLRLSCAASGFTFSKYVMGWYRQAPGKERELVAAITTSGGSTYYADSVKGRFTISRDNAKNTVYLQMNSLKPEDTAVYYCNARSLHTSEGDYWGQGTQVTVSS | low polyreactivity
22 | QVQLVESGGGLVQAGGSLRLSCAASGFTFSLNTMGWYRQAPGKERELVAAINSGDSTYADSVKGRFTISRDNAKNTVYLQMNSLKPEDTAVYYCNADPDWWYPYNYWGLGTQVTVSS | low polyreactivity
23 | QVQLVESGGGLVQAGGSLRLSCAASGFTFSQYAMGWYRQAPGKERELDAAISWNGGSTYYADSVKGRFTISRDNAKNTVYLQMNSLKPEDTAVYYCAAYGYYTKVTKYDYWGQGTQVTVSS | high polyreactivity
24 | QVQLVESGGGLVQAGGSLRLSCAASGFTFSRNAMGWYRQAPGKERELVAAIDSGGSTDYADSVKGRFTISRDNAKNTVYLQLNSLKPEDTAVYYCAKASSATRYVQLRQDYDYWGQGTQVTVSS | low polyreactivity
25 | QVQLVESGGGLVQAGGSLRLSCAASGFTFSRNTMGSSRQAPGKERELVARIPASGGSTYYADSVKGRFTISRDNAKNTVYLLMNSLNPEDTAVYYCAAVYRRYGASRYDYWGQGTQVTVSS | high polyreactivity
26 | QVQLVESGGGLVQAGGSLRLSCAASGFTFSRYAMGWYRQAPGKEREFVAAISWSGGSTYYADSVKGRFTISRDNAKNTVYLQMNSLKPEDTAVYYCNAGSQLLASQTRYDYWGQGTQVTVSS | low polyreactivity
27 | QVQLVESGGGLVQAGGSLRLSCAASGFTFSRYVMGWYRQAPGKERELVATISSDGDDTYYADSVKGRFTISRDNAKNTVYLQMNSLKPEDTAVYYCAAESYTYYADYGYGYWGQGTQVTVSS | high polyreactivity
28 | QVQLVESGGGLVQAGGSLRLSCAASGFTFSSYAMGWYRQEPGKERELVAAISTSGASTYYADSVKGRFTISRDNAKNTVYLQMNSLKPEDTAVYYCNVPQWHRWYRYPGEDYDYWGQGTQVTVSS | high polyreactivity
29 | QVQLVESGGGLVQAGGSLRLSCAASGFTFSTNAMGWYRQAPGKERELVAAITWRGGSTYYADSVKGRFTISRDNAKNTVYLQMNSLKPEDTAVYYCARRSRGSHVSYYKKFDYWGQGTQVTVSS | low polyreactivity
30 | QVQLVESGGGLVQAGGSLRLSCAASGFTFSTYTMGWYRQAPGKERELVARITWSGTRTYYADSVKGRFTISRDNAKNTVYLQMNSLKPEDTAVYYCNAGPYARYYWGQGTQVTVSS | high polyreactivity
31 | QVQLVESGGGLVQAGGSLRLSCAASGFTFSVNAMGWYRQAPGKERELVAAITRSGGRTYYADSVKGRFTISRDNAKNTVYLQMNSLKPEDTAVYYCATPRSRTDGYDYWGQGTQVTVSS | high polyreactivity

Source: the nanobody polyreactivity screen of Harvey et al. (2022)
